Broadly, the Kd is the equilibrium constant for the complex coming apart.

The text below walks through data of US20170334979A1 (published 2017).

Sequences and labels used below:
B2: cynomolgus monkey serum albumin (other)
chain: DTHKSEVAHRFKDLGEEHFKGLVLVAFSQYLQQCPFEEHVKLVNEVTEFAKTCVADESAENCDKSLHTLFGDKLCTVATLRETYGEMADCCAKQEPERNECFLQHKDDNPNLPPLVRPEVDVMCTAFHDNEATFLKKYLYEVARRHPYFYAPELLFFAARYKAAFAECCQAADKAACLLPKLDELRDEGKASSAKQRLKCASLQKFGDRAFKAWAVARLSQKFPKAEFAEVSKLVTDLTKVHTECCHGDLLECADDRADLAKYMCENQDSISSKLKECCDKPLLEKSHCLAEVENDEMPADLPSLAADYVESKDVCKNYAEAKDVFLGMFLYEYARRHPDYSVMLLLRLAKAYEATLEKCCAAADPHECYAKVFDEFQPLVEEPQNLVKQNCELFEQLGEYKFQNALLVRYTKKVPQVSTPTLVEVSRNLGKVGAKCCKLPEAKRMPCAEDYLSVVLNRLCVLHEKTPVSEKVTKCCTESLVNRRPCFSALELDEAYVPKAFNAETFTFHADMCTLSEKEKQVKKQTALVELVKHKPKATKEQLKGVMDNFAAFVEKCCKADDKEACFAEEGPKFVAASQAALA

Among the targets are human serum albumin (human, UniProt P02768 25-609); mouse serum albumin (mouse, UniProt P07724 25-608); 10GE.
Common to all, as to assay: purified sdAb binding
Test [1] concerns the target B2.

Sequence of mouse serum albumin (P07724 25-608): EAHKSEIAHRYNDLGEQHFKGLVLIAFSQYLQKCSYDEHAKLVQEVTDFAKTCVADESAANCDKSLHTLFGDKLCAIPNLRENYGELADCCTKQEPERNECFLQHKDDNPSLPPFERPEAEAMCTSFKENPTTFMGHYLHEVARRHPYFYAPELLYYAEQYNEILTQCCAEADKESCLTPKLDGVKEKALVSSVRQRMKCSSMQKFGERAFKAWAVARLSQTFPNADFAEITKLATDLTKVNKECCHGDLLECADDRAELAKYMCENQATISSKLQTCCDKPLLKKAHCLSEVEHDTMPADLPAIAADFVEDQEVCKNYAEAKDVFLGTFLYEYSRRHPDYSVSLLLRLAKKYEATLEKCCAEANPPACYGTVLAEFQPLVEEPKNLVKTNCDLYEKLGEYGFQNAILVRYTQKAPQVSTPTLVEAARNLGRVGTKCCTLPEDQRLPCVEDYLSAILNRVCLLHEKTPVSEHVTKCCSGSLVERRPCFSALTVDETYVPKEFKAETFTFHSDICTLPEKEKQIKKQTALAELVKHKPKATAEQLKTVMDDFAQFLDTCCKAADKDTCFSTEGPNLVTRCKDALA

B1: 7A (protein)
chain: EVQLVESGGGLVQPGNSLRLSCAASGFTFSKFGMSWVRQAPGKGLEWVSSISGSGADTLYADSLKGRFTISRDNAKTTLYLQMNSLRPEDTAVYYCTIGGSLSKSSQGTLVTVSS
As for B1, the Kd in test [1] came out at 1.7 nM; with human serum albumin, 1.9 nM; with mouse serum albumin it was 12.3 nM.
B2 had a Kd with 10GE of 1.6 nM.
